Data on one molecule can be found in US20040002124A1 (MUNIN, published 2004).

Where no end group is shown, it is not given here.

This experiment concerns the target T1, αVβ3 integrin purified from HUVE cell lysates (human, UniProt P06756 31-1048; P05106 27-788).
T1 construct: mature; Detergent-solubilised native heterodimer, coated on plates; also called vitronectin receptor; immobilized integrin
The experiment in a line: affinity chromatography of HUVE cell lysate on RGDSPK Sepharose. Here is the method:
αVβ₃ integrin purification from HUVE cell lysates was done as described in Pytela et al., Meth. Enzynmol., 144:475-489 (1987). Briefly, 10⁸ cells were lysed in 1 ml of PBS containing 1 mM CaCl₂, 1 mM MgCl₂, 0.5 mM PMSF and 100 mM octylglucoside. […] The purity of the integrin was determined by SDS-PAGE under non-reducing conditions, followed by silver staining.

T1 sequence (P06756 31-1048, chain 1 of 2): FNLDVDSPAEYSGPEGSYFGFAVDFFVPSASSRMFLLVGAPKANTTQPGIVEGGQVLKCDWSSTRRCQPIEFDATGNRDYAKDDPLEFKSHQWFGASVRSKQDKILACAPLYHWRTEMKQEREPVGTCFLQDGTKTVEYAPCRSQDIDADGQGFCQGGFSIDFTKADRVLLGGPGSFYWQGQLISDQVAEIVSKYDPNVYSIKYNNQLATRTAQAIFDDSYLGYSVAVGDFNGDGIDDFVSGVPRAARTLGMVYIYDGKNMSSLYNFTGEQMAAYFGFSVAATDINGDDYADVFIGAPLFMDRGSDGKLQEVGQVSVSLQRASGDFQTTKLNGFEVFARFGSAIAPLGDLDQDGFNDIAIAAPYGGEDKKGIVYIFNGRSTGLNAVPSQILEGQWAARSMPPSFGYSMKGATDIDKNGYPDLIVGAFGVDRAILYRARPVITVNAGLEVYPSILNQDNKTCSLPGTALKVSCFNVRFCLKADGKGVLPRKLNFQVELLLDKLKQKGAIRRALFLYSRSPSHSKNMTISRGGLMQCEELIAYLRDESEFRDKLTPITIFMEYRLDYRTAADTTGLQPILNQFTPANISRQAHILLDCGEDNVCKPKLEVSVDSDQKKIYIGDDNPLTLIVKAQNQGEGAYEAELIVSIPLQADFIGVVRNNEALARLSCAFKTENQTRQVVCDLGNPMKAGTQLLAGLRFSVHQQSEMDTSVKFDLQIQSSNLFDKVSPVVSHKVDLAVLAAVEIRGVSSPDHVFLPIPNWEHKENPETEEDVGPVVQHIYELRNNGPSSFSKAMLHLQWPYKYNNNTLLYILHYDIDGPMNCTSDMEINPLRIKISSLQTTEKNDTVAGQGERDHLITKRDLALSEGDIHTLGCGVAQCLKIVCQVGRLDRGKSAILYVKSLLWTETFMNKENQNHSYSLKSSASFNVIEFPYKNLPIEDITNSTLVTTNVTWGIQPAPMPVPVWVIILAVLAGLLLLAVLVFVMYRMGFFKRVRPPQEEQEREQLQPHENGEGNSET
T1 sequence (P05106 27-788, chain 2 of 2): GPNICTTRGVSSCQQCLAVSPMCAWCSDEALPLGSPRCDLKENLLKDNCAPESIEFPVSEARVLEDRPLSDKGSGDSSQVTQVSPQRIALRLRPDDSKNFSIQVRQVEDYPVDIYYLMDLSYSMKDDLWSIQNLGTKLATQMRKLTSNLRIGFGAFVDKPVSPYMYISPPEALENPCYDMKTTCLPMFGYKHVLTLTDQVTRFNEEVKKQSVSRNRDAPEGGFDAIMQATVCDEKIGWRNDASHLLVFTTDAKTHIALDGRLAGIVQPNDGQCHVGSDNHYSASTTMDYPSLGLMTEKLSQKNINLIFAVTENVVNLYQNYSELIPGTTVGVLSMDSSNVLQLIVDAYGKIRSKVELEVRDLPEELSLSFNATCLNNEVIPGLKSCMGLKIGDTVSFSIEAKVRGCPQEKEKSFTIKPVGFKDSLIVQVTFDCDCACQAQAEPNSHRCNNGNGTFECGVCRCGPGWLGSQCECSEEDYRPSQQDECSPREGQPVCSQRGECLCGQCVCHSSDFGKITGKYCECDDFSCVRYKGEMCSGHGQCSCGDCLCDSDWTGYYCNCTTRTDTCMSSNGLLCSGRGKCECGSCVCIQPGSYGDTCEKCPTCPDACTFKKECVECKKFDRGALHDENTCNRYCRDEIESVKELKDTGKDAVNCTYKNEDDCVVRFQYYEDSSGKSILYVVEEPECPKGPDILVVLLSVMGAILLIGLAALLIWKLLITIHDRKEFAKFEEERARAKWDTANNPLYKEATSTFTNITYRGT

B1: RGDSPK Sepharose (peptide)
peptide: RGDSPK
modifications: also: coupled to cyanogen bromide activated Sepharose CL 4B
notes: also called RGDSPK peptide
In the case of B1, the binding result is recorded as “binds”.
